These results are taken from patent US20260209365A1, “ANTI-COMMON GAMMA CHAIN PROTEINS AND COMPOSITIONS OF MATTER” (SINOMAB BIOSCIENCE LIMITED, priority 2023, published 2026).

Data set [1] has as its system granzyme and IFNγ secretion. Kind of data set: Secretion of granzymes and IFNγ from PBMC culture, ELISA. The data set is classed as cell-based, human. To be noted: IL-2 or IL-15, 33 nM, humanized antibodies. The protocol:
Activation of T and NK cells in the PBMC culture could be studied by granzyme and IFNγ secretion [Carlin et al., Blood., 2005; 106 (12): 3874-9; Grossman et al., Blood., 2004; 104 (9): 2840-8; Keppel et al., J Immunol., 2015; 194 (4): 1954-1962; Tamang et al., Cytokine., 2006; 36 (3-4): 148-59]. Similar results are obtained in-house that IL-2 and IL-15 but not IL-21 could trigger secretion of granzyme A and IFNγ in PBMC culture (FIG. 15A-B).
Antibodies or ritlecitinib were added into the PBMC culture to investigate their inhibitory effects in the presence of IL-2 or IL-15 treatment.
Releases of cytolytic agents from PBMC culture were further evaluated by ELISA assays.

Another data set concerns Jurkat T cells. Kind of data set: IL-9 rescue of ceramide induced Jurkat cell death, WST-8. The data set is classed as cell-based, human. The conditions noted are these: ceramide 50 μM; IL-9 50 ng/ml; three days. As for the experimental part: Jurkat T cells were pretreated with anti-γc antibodies or ritlecitinib before the application of anti-tumor ceramide (50 μM) and IL-9 (50 ng/ml) for three days. To evaluate cell survival, 10 μl WST-8 reagent was added to each well and incubated for 4 hours before spectrophotometer measurement.

Data set [2] has as its system CD127 internalization and degradation. Kind of data set: IL-7 induced CD127 internalization and degradation in HPB-ALL, flow cytometry. The data set is classed as cell-based, human. To be noted: humanized antibodies, 33 nM, vs ritlecitinib. An excerpt:
Specific methods for IL-7 function were developed in HPB-ALL [Henriques et al., Blood., 2010; 115 (16): 3269-77]. IL-7 could trigger the internalization of its own receptor, CD127 (or IL-7Rai), into the cell compartment for degradation. As the CD127 degradation depends on the JAK3 activated status after IL-7 stimulation, blockade of γc binding to CD127 and downstream signaling pathway should stop CD127 internalization and degradation in HPB-ALL.
After antibody or inhibitor pretreatment, HPB-ALL was challenged with 50 ng/ml IL-7 for 3 hours. Surface CD127 expression was performed in live cells while total CD127 expression was investigated in PFA fixed and permeabilized cells. Cells were stained with APC-conjugated CD127 antibody for flow cytometry analysis.

For data set [3], the system named is native γc proteins from common marmoset. Kind of data set: Binding to native common marmoset γc on transfected HEK-293 cells, flow cytometry. The data set is classed as cell-based. The conditions noted are these: FITC-labelled antibody 33 nM (5 μg/ml). As for the experimental part: The binding specificities of humanized anti-γc antibodies to native γc proteins were further evaluated by […] binding assay. In brief, human HEK-293 cells were transfected with plasmid expressing full length γc protein from human, rhesus, cynomolgus or common marmoset. Two days later, transfected cells or non-transfected controls were incubated with FITC-conjugated hSM-05A on ice for an hour before analysis by flow cytometry.

A further data set has as its system IL-7 induced p-STAT5. Kind of data set: Suppression of p-STAT in PBMC, IL-7. The data set is classed as cell-based, human. The conditions noted are these: antibody 10 μg/ml, compared to isotype control. As for the experimental part:
(§1) Given numbers refer to the percentage of inhibition compared to isotype control stimulated with respective γc cytokine. Antibody concentration is 10 μg/ml.

The subject of another data set is T cells. Kind of data set: Mixed lymphocyte reaction (MLR) in human PBMC. To be noted: CFSE, flow cytometry. The data set is classed as cell-based. As for the experimental part:
To provide hints at effects of humanized antibodies to target GvHD, MLR assay was developed in our PBMC system (FIG. 29A). In brief, total T cells were isolated from PBMC of donor 1 while T cells were depleted from PBMC of donor 2. T cells from donor 1 were activated with a cocktail of anti-CD3 and anti-CD28 antibodies in the presence of IL-2. Simultaneously, T cells were incubated with humanized antibodies or ritlecitinib together with inducing agents. After 3 days, T cells were labelled with CFSE before co-culture with T-cell depleted culture from donor 2 for 6 days. Proliferating T cells were identified as CFSE low or CSFE negative population in flow cytometry.

A further data set relates to Ramos B cells. Kind of data set: WST-8 proliferation assay, IL-4/IL-21 rescue of anti-IgM induced cell death. The data set is classed as cell-based, human. The conditions noted are these: humanized antibodies; 33 nM (5 μg/ml); vs ritlecitinib. As for the experimental part: The effects of anti-γc antibodies in blocking IL-4 and IL-21 rescues of Ramos cell death after anti-IgM induced hyperactivation were investigated by WST-8 proliferation assay. In brief, Ramos cells (50000 cells in 100 l) were seeded into 96-well plate and stabilized at 37° C. for an hour. Cells were pretreated in anti-γc antibodies or ritlecitinib for an hour, followed by incubation of IL-4 (10 ng/ml) or IL-21 (10 ng/ml) and anti-IgM (2 ug/ml, #109-006-129, Jackson ImmunoResearch). Aft er 48 hours, 10 μl WST-8 reagent (ab228554, Abcam) was added to each well and incubated for 4 hours.
WST-8 could be reduced by cellular dehydrogenases to an orange formazan product, which the amount of formazan produced is directly proportional to the number of living Ramos cells. Optical density (OD) of each well was measured by absorbance at 450 nm using Varioskan LUX Multimode Microplate Reader (ThermoFisher Scientific).

The test system of another data set is IL-2 induced p-STAT3. Kind of data set: Suppression of p-STAT in PBMC, IL-2. To be noted: antibody 10 μg/ml, compared to isotype control. The data set is classed as cell-based, human. The protocol: as §1
The subject of the next data set is BCL-2 expression. Kind of data set: IL-7 induced BCL-2 expression in HPB-ALL, flow cytometry. The data set is classed as cell-based, human. To be noted: humanized antibodies, 33 nM, vs ritlecitinib. The protocol: Several assays, such as were proposed to study cell survival of HPB-ALL from literature [Ribeiro et al., Blood Adv., 2018; 2 (17): 2199-2213] was measured in terms of BCL2 (anti-apoptotic marker) expressing cells by flow cytometry. In brief, HPB-ALL was pre-treated with antibodies or inhibitors for an hour before stimulated with 50 ng/ml IL-7 for 3 days. Cells were harvested and stained with FITC-conjugated BCL-2 antibody (Biolegend) for flow cytometry analysis.

Another data set has as its system IL-4 induced p-STAT6. Kind of data set: Suppression of p-STAT in PBMC, IL-4. The data set is classed as cell-based, human. To be noted: antibody 10 μg/ml, compared to isotype control.
Description: PBMC isolated from healthy individuals (iXCells Biotechnologies, San Diego, USA) is chosen as the primary immune cell culture to conclude the efficacies of anti-γc antibodies in the primary cells. As STAT phosphorylation could be triggered by the treatment of all six γc cytokines (except IL-9) in the PBMC culture (FIG. 12A-B), inhibition of p-STAT could be used as an indicator to confirm the efficacies of anti-γc antibodies.
as §1

Another data set deals with rat γc. Kind of data set: BLI binding kinetics to rat γc protein.
Sequence of rat γc (as listed by the source): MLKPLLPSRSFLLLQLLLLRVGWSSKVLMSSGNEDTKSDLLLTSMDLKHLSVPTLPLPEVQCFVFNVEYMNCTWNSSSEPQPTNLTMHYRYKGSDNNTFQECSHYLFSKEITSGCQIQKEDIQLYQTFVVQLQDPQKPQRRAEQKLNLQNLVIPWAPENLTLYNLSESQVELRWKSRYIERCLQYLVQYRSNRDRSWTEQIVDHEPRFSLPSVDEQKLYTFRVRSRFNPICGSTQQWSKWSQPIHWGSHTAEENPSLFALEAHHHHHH

Sequence of native γc proteins from common marmoset (as listed by the source): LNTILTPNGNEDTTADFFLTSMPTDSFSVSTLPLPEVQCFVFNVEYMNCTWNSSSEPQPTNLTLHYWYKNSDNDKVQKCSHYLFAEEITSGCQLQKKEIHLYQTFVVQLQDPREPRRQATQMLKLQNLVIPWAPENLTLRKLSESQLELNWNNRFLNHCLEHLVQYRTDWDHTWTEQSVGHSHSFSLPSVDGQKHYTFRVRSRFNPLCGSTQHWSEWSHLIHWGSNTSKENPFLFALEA

B1: hSM-05A: full-length humanized anti-γc antibody derived from SM-05A by framework patching (antibody, V domains shown)
VH: QVQLVQSGAEVLKPGASVKVSCKASGYTFTEYTMHWVKQARGQRLEWIGGIDPYNGGATYNQRFKGKATLTTDTSTSTAYMELRNLRSDDTAVYYCARRRLYYGNALDYWGQGTLVTVSS
VL: DIVMTQSPLSLPVTPGEQASISCRSSQSLVHSNGNTYLHWYLQKPGQSPQLLIYKVSSRFSGVPDRFSGSGSGTDFTLKISRVEAEDVGVYFCSQTTHVPFTFGSGTKLEIKR
Take B1: the “inhibition of IFNγ secretion” value in data set [1] is listed as “comparable inhibition to IFNγ secretion to ritlecitinib”. In the data set on Jurkat T cells, the “suppression of IL-9 rescue of ceramide induced Jurkat cell death” value is given as “could suppress the IL-9 effect”. Also, the “suppression of IL-7 induced CD127 degradation” value in data set [2] is “better suppression to IL-7 induced BCL-2 upregulation and CD127 degradation than ritlecitinib”. In addition, the “binding to native common marmoset γc on HEK-293” value in [3] is “could bind to the native γc proteins from humans and common marmoset”. In addition, in the data set with IL-7 induced p-STAT5, the “IL-7 induced p-STAT5, percentage of inhibition” value was 94.17%. Moreover, in the data set on T cells, the “inhibition of MLR induced expansion of cytotoxic T cells” value is reported as “could significantly inhibit” and the “suppression of MLR induced expansion of T helper cells” value was “the suppression was milder to T helper cells”. In addition, the “restimulation of anti-IgM induced cell death in presence of IL-4 or IL-21 (WST-8)” value in the data set on Ramos B cells is reported as “can restimulate anti-IgM induced cell death in a comparable level to ritlecitinib”. Also, the “IL-2 induced p-STAT3, percentage of inhibition” value in the data set on IL-2 induced p-STAT3 came to 89.94%. For the same molecule, the “suppression of IL-7 induced BCL-2 upregulation” value with BCL-2 expression is “better suppression to IL-7 induced BCL-2 upregulation and CD127 degradation than ritlecitinib”. In the data set on IL-4 induced p-STAT6, the “IL-4 induced p-STAT6, percentage of inhibition” value worked out at 17.18%.

B2: hSM-05E: full-length humanized anti-γc antibody derived from SM-05E by framework patching (antibody, V domains shown)
VH: QVQLVQSGAEVLKPGASVKVSCKASGYTFTEYTMHWVKQARGQRLEWIGGIDPNTGGVTYNQKFKGKATLTTDTSTSTAYMELRNLRSDDTAVYYCARRRRYYGYALDYWGQGTLVTVSS
VL: DIVMTQSPLSLPVTPGEQASISCRSSQSIVHSNGNTYLEWYLQKPGQSPQLLIYKVSNRFSGVPDRFSGSGSGTDFTLKISRVEAEDVGVYFCSQSTHVPFMFGSGTKLEIKR
Take B2: in data set [1], the “inhibition of IFNγ secretion” value is reported as “only offered weak suppression to two agents” and the “suppression of granzyme B secretion” value is “only offered weak suppression to two agents”. Also, in the data set on rat γc, the “Ka” value was determined as 71000 M⁻¹ s⁻¹ and the “Kdis” value came to 0.00208 s⁻¹. Moreover, in the data set with IL-7 induced p-STAT5, the “IL-7 induced p-STAT5, percentage of inhibition” value is given as 66.02%. Besides, in the data set on T cells, the “inhibition of MLR induced expansion of cytotoxic T cells” value is given as “could significantly inhibit” and the “suppression of MLR induced expansion of T helper cells” value is “the suppression was milder to T helper cells”. Also, the “restimulation of anti-IgM induced cell death in presence of IL-4 or IL-21 (WST-8)” value in the data set on Ramos B cells is “can restimulate anti-IgM induced cell death in a comparable level to ritlecitinib”. In addition, the “IL-2 induced p-STAT3, percentage of inhibition” value in the data set on IL-2 induced p-STAT3 amounted to 58.45%. Moreover, in the data set with IL-4 induced p-STAT6, the “IL-4 induced p-STAT6, percentage of inhibition” value is 21.74%.
